Source: patent US20140241987A1
Substitutions are numbered along the chain they refer to. One block for each binder: values may come before it.

Experiments:
[1] = target: α-synuclein fibrils (human), P37840; test: inhibition ELISA, fibrils against monomers; settings: remark: other sources report otherwise
[2] = target: α-synuclein fibrils (human), P37840; test: SPR, BIAcore X100, fibrils immobilised on CM5, mAb injected; settings: remark: other sources report otherwise

Fold Affinity to Fibrils [1]: 16600 fold
Kd [2]: 0.127 nM
koff [2]: 0.00156 s⁻¹
kon [2]: 1.23e+07 M⁻¹ s⁻¹
B1: Syn-F1 (antibody)
chain 1: DVQLVESGGDLVQPGGSRKLSCAASGFTFSSFGMHWVRQAPEKGLEWVAYINSGSSTIYYADTVKGRFTISRDNPKNTLFLQMTSLRSEDTAMYYCARGNNPGTGYYYSMDYWGQGTSVTVSS
chain 2: not shown

Fold Affinity to Fibrils [1]: 3140 fold
Kd [2]: 2.69 nM
koff [2]: 0.00338 s⁻¹
kon [2]: 1.26e+06 M⁻¹ s⁻¹
B2: Syn-F2 (antibody)
chain 1: B1 chain 1 with D10G, N52S, S109A
chain 2: not shown
